{"source": "patent US6686449B2", "about": "“Mutant presenilin 1 polypeptides” (Pharmacia & Upjohn Company, priority 2000, dated 2004)", "molecules": {"B1": {"name": "BACE: beta-secretase (Asp2) plasmid transfected into the cell lines (protein, UniProt P56817 46-501, looked up)", "Beta-secretase 1": "ETDEEPEEPGRRGSFVEMVDNLRGKSGQGYYVEMTVGSPPQTLNILVDTGSSNFAVGAAPHPFLHRYYQRQLSSTYRDLRKGVYVPYTQGKWEGELGTDLVSIPHGPNVTVRANIAAITESDKFFINGSNWEGILGLAYAEIARPDDSLEPFFDSLVKQTHVPNLFSLQLCGAGFPLNQSEVLASVGGSMIIGGIDHSLYTGSLWYTPIRREWYYEVIIVRVEINGQDLKMDCKEYNYDKSIVDSGTTNLRLPKKVFEAAVKSIKAASSTEKFPDGFWLGEQLVCWQAGTTPWNIFPVISLYLMGEVTNQSFRITILPQQYLRPVEDVATSQDDCYKFAISQSSTGTVMGAVIMEGFYVVFDRARKRIGFAVSACHVHDEFRTAAVEGPFVTLDMEDCGYNIPQTDESTLMTIAYVMAAICALFMLPLCLMVCQWRCLRCLRQQHDDFADDISLLK"}}, "key": {"[1]": {"test_system": "APP processing in H125.3-16 (APP695sw-KK) and H143.3-23 (APP695sw) HEK cells", "assay": "Transient transfection of constructs, Elisa of Aβ in conditioned media, HEK APP695sw cell lines", "assay_type": "cell-based, human", "conditions": "48 hours after transfection", "experimental": "(§1) The construction of the cell lines used in this section has been described in U.S. Pat. No. 6,440,698. Transient transfections were carried out in 4 different cell lines: H125.3-16, N2A-APP, H143.3-23, and H167-11. The H125.3-16 cell line expresses human APP695 swedish mutant cDNA with a dilyine motif in HEK-293 cells, and the H 143.3-23 cell line expresses human APP695 swedish mutant cDNA in HEK-293 cells. The H167-1 1 cell line was developed using the same methods as the H125.3-16 and H143.3-23 cell lines, except the 167 construct DNA (pTRES-EGFP harboring the human APP695 V642F mutant cDNA containing a dilyine motif) was used. […]\n(§2) Twenty-four hours prior to transfection, cells were plated at 6×10^5 cells per well of a six-well dish. […] Conditioned media was collected from the cells 48 hours after transfection and then analyzed by Elisa assay for levels of Aβ1-40 and Aβ1-42. […]"}, "[2]": {"test_system": "APP processing in H167-11 HEK cells (APP695V642F-KK)", "assay": "Transient transfection of constructs, Elisa of Aβ in conditioned media, H167-11 cell line", "assay_type": "cell-based, human", "conditions": "48 hours after transfection", "experimental": "as §1, §2"}}, "data": [{"molecule": "B1", "values": [{"measurement": "change of Aβ1-40 in conditioned media versus mock transfected cells", "setting": "[1]", "result": "robust increase"}, {"measurement": "change of Aβ1-42 in conditioned media versus mock transfected cells", "setting": "[1]", "result": "robust increase"}, {"measurement": "change of Aβ1-40 or Aβ1-42 versus mock transfected cells", "setting": "[2]", "result": "increase"}]}]}
